{"source": "patent US20200317768A1", "about": "(published 2020)", "assay_in_all_cases": "SPR (BIACORE); KD of SG1 / KD of variant;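 further: relative to parent M103205H795-SG1 carrying the SG1 human heavy chain constant region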", "key": {"[1]": {"biological_target": "T1, cynomolgus monkey FcγRIIa1 extracellular domain with C-terminal His-tag (cynomolgus monkey)", "T1 construct": "also called cyno FcgRIIa1; cynoFcγRIIa1", "T1 chain": "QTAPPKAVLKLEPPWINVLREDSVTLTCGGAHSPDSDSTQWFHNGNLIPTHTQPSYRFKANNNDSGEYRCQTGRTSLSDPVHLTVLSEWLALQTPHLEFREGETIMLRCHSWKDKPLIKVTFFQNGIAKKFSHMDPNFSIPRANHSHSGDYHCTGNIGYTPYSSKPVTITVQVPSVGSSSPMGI"}, "[2]": {"biological_target": "T2, cynomolgus monkey FcγRIIa2 extracellular domain with C-terminal His-tag (cynomolgus monkey)", "T2 construct": "also called cyno FcgRIIa2; cynoFcγRIIa2", "T2 chain": "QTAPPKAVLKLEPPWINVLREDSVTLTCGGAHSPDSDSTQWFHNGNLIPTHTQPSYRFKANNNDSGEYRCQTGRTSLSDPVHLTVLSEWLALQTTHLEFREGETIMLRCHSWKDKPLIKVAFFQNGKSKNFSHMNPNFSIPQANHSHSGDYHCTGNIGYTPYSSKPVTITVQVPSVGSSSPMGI"}, "[3]": {"biological_target": "T3, cynomolgus monkey FcγRIIa3 extracellular domain with C-terminal His-tag (cynomolgus monkey)", "T3 construct": "also called cyno FcgRIIa3; cynoFcγRIIa3", "T3 chain": "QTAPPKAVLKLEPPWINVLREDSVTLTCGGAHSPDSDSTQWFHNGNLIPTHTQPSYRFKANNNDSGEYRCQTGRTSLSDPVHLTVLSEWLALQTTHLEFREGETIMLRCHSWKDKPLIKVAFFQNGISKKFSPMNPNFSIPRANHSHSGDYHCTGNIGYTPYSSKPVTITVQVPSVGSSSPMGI"}, "[4]": {"biological_target": "T4, cynomolgus monkey FcγRIIb extracellular domain with C-terminal His-tag (cynomolgus monkey)", "T4 construct": "also called cyno FcgRIIb; cynoFcγRIIb", "T4 chain": "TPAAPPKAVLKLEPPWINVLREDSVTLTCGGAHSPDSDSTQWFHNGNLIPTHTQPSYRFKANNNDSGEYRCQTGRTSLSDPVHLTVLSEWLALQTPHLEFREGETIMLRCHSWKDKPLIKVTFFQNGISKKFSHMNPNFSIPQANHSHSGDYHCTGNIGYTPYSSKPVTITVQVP"}, "[5]": {"biological_target": "T5, human FcγRIIaH extracellular domain with C-terminal His-tag (human, UniProt P12318 34-217)", "T5 construct": "also called human FcgRIIaH; FcγRIIa (type H)", "T5 sequence": "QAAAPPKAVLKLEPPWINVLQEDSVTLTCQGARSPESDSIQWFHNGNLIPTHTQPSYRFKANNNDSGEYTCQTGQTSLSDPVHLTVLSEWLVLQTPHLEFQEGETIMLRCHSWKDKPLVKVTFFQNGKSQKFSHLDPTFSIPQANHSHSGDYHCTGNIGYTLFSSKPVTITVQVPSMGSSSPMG"}, "[6]": {"biological_target": "T6, human FcγRIIaR extracellular domain with C-terminal His-tag (human, UniProt P12318 34-217)", "T6 construct": "also called human FcgRIIaR; FcγRIIa (type R)", "T6 chain": "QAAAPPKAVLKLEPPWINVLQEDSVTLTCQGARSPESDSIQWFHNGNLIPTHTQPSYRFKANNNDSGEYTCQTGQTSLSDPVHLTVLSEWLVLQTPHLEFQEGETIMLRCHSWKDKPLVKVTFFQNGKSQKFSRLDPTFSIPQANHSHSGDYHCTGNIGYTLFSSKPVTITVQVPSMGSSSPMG"}, "[7]": {"biological_target": "T7, human FcγRIIb extracellular domain with C-terminal His-tag (human, UniProt P31994 43-217)", "T7 construct": "also called human FcgRIIb", "T7 sequence": "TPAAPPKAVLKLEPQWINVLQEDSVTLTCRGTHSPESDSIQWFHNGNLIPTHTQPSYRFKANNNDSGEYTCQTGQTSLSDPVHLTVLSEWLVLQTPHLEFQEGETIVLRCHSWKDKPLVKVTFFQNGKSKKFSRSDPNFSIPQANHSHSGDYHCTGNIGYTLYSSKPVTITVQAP"}, "[8]": {"biological_target": "T8, human FcγRIIIaV extracellular domain with C-terminal His-tag (human, UniProt P08637 17-208)", "T8 construct": "also called human FcgRIIIaV", "T8 sequence (P08637 17-208 F176V)": "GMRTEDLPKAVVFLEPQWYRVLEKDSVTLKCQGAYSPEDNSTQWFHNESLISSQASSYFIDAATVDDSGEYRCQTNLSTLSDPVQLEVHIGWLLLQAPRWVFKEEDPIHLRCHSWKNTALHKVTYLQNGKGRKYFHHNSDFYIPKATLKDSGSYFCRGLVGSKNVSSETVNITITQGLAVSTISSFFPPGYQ"}}}
{"binder": "M103205H795-MY209/M103202L889-SK1 (antibody, human IgG1, kappa, Substitutions introduced into M103205H795-SG1, expressed with M103202L889-SK1 as light chain; EU numbering) heavy: QVTLKESGPVLVKPTETLTLTCTVSGIDLSHDDISWVRQAPGKGLEWVGIISYAGSTYYASWAKGRLTISKDTSKNQVVLTMTNMDPVDTATYYCARGVPAYSHGGDLWGQGTLVTVSSASTKGPSVFPLAPSSKSTSGGTAALGCLVKDYFPEPVTVSWNSGALTSGVHTFPAVLQSSGLYSLSSVVTVPSSSLGTQTYICNVNHKPSNTKVDKKVEPKSCDKTHTCPPCPAPELLNGPSVFLFPPKPKDTLMISRTPEVTCVVVDVSDEDPEVKFNWYVDGVEVHNAKTKPREELYNSTYRVVSVLTVLHQDWLNGKEYKCKVSNTALPKPIEKTISKAKGQPREPQVYTLPPSREEMTKNQVSLTCLVKGFYPSDIAVEWESNGQPENNYKTTPPVLDSDGSFFLYSKLTVDKSRWQQGNVFSCSVMHEALHNHYTQKSLSLSP light: DIVMTQSPATLSLSPGERATLSCTSSQSVYHANWLSWFQQKPGQPPKLLIYWASTLAYGVPSRFSGSGSGTDFTLTISSLQPEDAATYYCAGGYGGGRYAFGQGTKVEIKRTVAAPSVFIFPPSDEQLKSGTASVVCLLNNFYPREAKVQWKVDNALQSGNSQESVTEQDSKDSTYSLSSTLTLSKADYEKHKVYACEVTHQGLSSPVTKSFNRGEC", "values": [{"measurement": "KD fold (SG1 = 1)", "setting": "[1]", "result": 5.1, "unit": "fold"}, {"measurement": "KD fold (SG1 = 1)", "setting": "[2]", "result": 7.4, "unit": "fold"}, {"measurement": "KD fold (SG1 = 1)", "setting": "[3]", "result": 8.9, "unit": "fold"}, {"measurement": "KD fold (SG1 = 1)", "setting": "[4]", "result": 9.5, "unit": "fold"}, {"measurement": "KD fold (SG1 = 1)", "setting": "[5]", "result": 1.2, "unit": "fold"}, {"measurement": "KD fold (SG1 = 1)", "setting": "[6]", "result": 1.3, "unit": "fold"}, {"measurement": "KD fold (SG1 = 1)", "setting": "[7]", "result": 9.2, "unit": "fold"}, {"measurement": "KD fold (SG1 = 1)", "setting": "[8]", "result": 0.06, "unit": "fold"}]}
{"binder": "M103205H795-MY339/M103202L889-SK1 (antibody, human IgG1, kappa, Substitutions introduced into M103205H795-SG1, expressed with M103202L889-SK1 as light chain; EU numbering) heavy: QVTLKESGPVLVKPTETLTLTCTVSGIDLSHDDISWVRQAPGKGLEWVGIISYAGSTYYASWAKGRLTISKDTSKNQVVLTMTNMDPVDTATYYCARGVPAYSHGGDLWGQGTLVTVSSASTKGPSVFPLAPSSKSTSGGTAALGCLVKDYFPEPVTVSWNSGALTSGVHTFPAVLQSSGLYSLSSVVTVPSSSLGTQTYICNVNHKPSNTKVDKKVEPKSCDKTHTCPPCPAPELLLGPSVFLFPPKPKDTLMISRTPEVTCVVVDVSDEDPEVKFNWYVDGVEVHNAKTKPREEQYNSTYRVVSVLTVLHQDWLNGKEYKCKVSNTALPKPIEKTISKAKGQPREPQVYTLPPSREEMTKNQVSLTCLVKGFYPSDIAVEWESNGQPENNYKTTPKVLDSDGSFFLYSKLTVDKSRWQQGNVFSCSVMHEALHNHYTQKSLSLSP light: DIVMTQSPATLSLSPGERATLSCTSSQSVYHANWLSWFQQKPGQPPKLLIYWASTLAYGVPSRFSGSGSGTDFTLTISSLQPEDAATYYCAGGYGGGRYAFGQGTKVEIKRTVAAPSVFIFPPSDEQLKSGTASVVCLLNNFYPREAKVQWKVDNALQSGNSQESVTEQDSKDSTYSLSSTLTLSKADYEKHKVYACEVTHQGLSSPVTKSFNRGEC", "values": [{"measurement": "KD fold (SG1 = 1)", "setting": "[1]", "result": 0.9, "unit": "fold"}, {"measurement": "KD fold (SG1 = 1)", "setting": "[2]", "result": 1.7, "unit": "fold"}, {"measurement": "KD fold (SG1 = 1)", "setting": "[3]", "result": 1.7, "unit": "fold"}, {"measurement": "KD fold (SG1 = 1)", "setting": "[4]", "result": 2.4, "unit": "fold"}, {"measurement": "KD fold (SG1 = 1)", "setting": "[5]", "result": 1.7, "unit": "fold"}, {"measurement": "KD fold (SG1 = 1)", "setting": "[6]", "result": 1.7, "unit": "fold"}, {"measurement": "KD fold (SG1 = 1)", "setting": "[7]", "result": 1.5, "unit": "fold"}, {"measurement": "KD fold (SG1 = 1)", "setting": "[8]", "result": 0.14, "unit": "fold"}]}
{"binder": "M103205H795-MY340/M103202L889-SK1 (antibody, human IgG1, kappa, Substitutions introduced into M103205H795-SG1, expressed with M103202L889-SK1 as light chain; EU numbering) heavy: QVTLKESGPVLVKPTETLTLTCTVSGIDLSHDDISWVRQAPGKGLEWVGIISYAGSTYYASWAKGRLTISKDTSKNQVVLTMTNMDPVDTATYYCARGVPAYSHGGDLWGQGTLVTVSSASTKGPSVFPLAPSSKSTSGGTAALGCLVKDYFPEPVTVSWNSGALTSGVHTFPAVLQSSGLYSLSSVVTVPSSSLGTQTYICNVNHKPSNTKVDKKVEPKSCDKTHTCPPCPAPELLLGPSVFLFPPKPKDTLMISRTPEVTCVVVDVSDEDPEVKFNWYVDGVEVHNAKTKPREELYNSTYRVVSVLTVLHQDWLNGKEYKCKVSNKALPKPIEKTISKAKGQPREPQVYTLPPSREEMTKNQVSLTCLVKGFYPSDIAVEWESNGQPENNYKTTPKVLDSDGSFFLYSKLTVDKSRWQQGNVFSCSVMHEALHNHYTQKSLSLSP light: DIVMTQSPATLSLSPGERATLSCTSSQSVYHANWLSWFQQKPGQPPKLLIYWASTLAYGVPSRFSGSGSGTDFTLTISSLQPEDAATYYCAGGYGGGRYAFGQGTKVEIKRTVAAPSVFIFPPSDEQLKSGTASVVCLLNNFYPREAKVQWKVDNALQSGNSQESVTEQDSKDSTYSLSSTLTLSKADYEKHKVYACEVTHQGLSSPVTKSFNRGEC", "values": [{"measurement": "KD fold (SG1 = 1)", "setting": "[1]", "result": 0.7, "unit": "fold"}, {"measurement": "KD fold (SG1 = 1)", "setting": "[2]", "result": 1, "unit": "fold"}, {"measurement": "KD fold (SG1 = 1)", "setting": "[3]", "result": 0.7, "unit": "fold"}, {"measurement": "KD fold (SG1 = 1)", "setting": "[4]", "result": 1.6, "unit": "fold"}, {"measurement": "KD fold (SG1 = 1)", "setting": "[5]", "result": 2.2, "unit": "fold"}, {"measurement": "KD fold (SG1 = 1)", "setting": "[6]", "result": 1.3, "unit": "fold"}, {"measurement": "KD fold (SG1 = 1)", "setting": "[7]", "result": 1.4, "unit": "fold"}, {"measurement": "KD fold (SG1 = 1)", "setting": "[8]", "result": 0.05, "unit": "fold"}]}
{"binder": "M103205H795-MY283/M103202L889-SK1 (antibody, human IgG1, kappa, Substitutions introduced into M103205H795-SG1, expressed with M103202L889-SK1 as light chain; EU numbering) heavy: QVTLKESGPVLVKPTETLTLTCTVSGIDLSHDDISWVRQAPGKGLEWVGIISYAGSTYYASWAKGRLTISKDTSKNQVVLTMTNMDPVDTATYYCARGVPAYSHGGDLWGQGTLVTVSSASTKGPSVFPLAPSSKSTSGGTAALGCLVKDYFPEPVTVSWNSGALTSGVHTFPAVLQSSGLYSLSSVVTVPSSSLGTQTYICNVNHKPSNTKVDKKVEPKSCDKTHTCPPCPAPELLTGPSVFLFPPKPKDTLMISRTPEVTCVVVDVSDEDPEVKFNWYVDGVEVHNAKTKPREELYNSTYRVVSVLTVLHQDWLNGKEYKCKVSNKALPKPIEKTISKAKGQPREPQVYTLPPSREEMTKNQVSLTCLVKGFYPSDIAVEWESNGQPENNYKTTPPVLDSDGSFFLYSKLTVDKSRWQQGNVFSCSVMHEALHNHYTQKSLSLSP light: DIVMTQSPATLSLSPGERATLSCTSSQSVYHANWLSWFQQKPGQPPKLLIYWASTLAYGVPSRFSGSGSGTDFTLTISSLQPEDAATYYCAGGYGGGRYAFGQGTKVEIKRTVAAPSVFIFPPSDEQLKSGTASVVCLLNNFYPREAKVQWKVDNALQSGNSQESVTEQDSKDSTYSLSSTLTLSKADYEKHKVYACEVTHQGLSSPVTKSFNRGEC", "values": [{"measurement": "KD fold (SG1 = 1)", "setting": "[1]", "result": 2.3, "unit": "fold"}, {"measurement": "KD fold (SG1 = 1)", "setting": "[2]", "result": 3.2, "unit": "fold"}, {"measurement": "KD fold (SG1 = 1)", "setting": "[3]", "result": 3.5, "unit": "fold"}, {"measurement": "KD fold (SG1 = 1)", "setting": "[4]", "result": 4.3, "unit": "fold"}, {"measurement": "KD fold (SG1 = 1)", "setting": "[5]", "result": 4.9, "unit": "fold"}, {"measurement": "KD fold (SG1 = 1)", "setting": "[6]", "result": 1.1, "unit": "fold"}, {"measurement": "KD fold (SG1 = 1)", "setting": "[7]", "result": 2.6, "unit": "fold"}, {"measurement": "KD fold (SG1 = 1)", "setting": "[8]", "result": 0.14, "unit": "fold"}]}
